Laboratory results reported in the supplement of paper PMC5949888.

Test system: Saccharomyces cerevisiae PS128 hsf1 delta, HSF1(1-493) fusion
Assay: growth estimate (transactivation domain function in HSF1 fusion, heat-shock survival) (a.u. (slope of normalised read count over time)); higher = stronger growth at 37°C, i.e. more transactivation activity
Conditions: library: design library
Method in brief: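 The growth estimate is the slope, from a robust linear fit over time, of read counts scaled to sample totals and starting count. These counts came from Illumina MiSeq sequencing of PCR-amplified inserts, run as six barcoded replicates of one experiment. The inserts encoded designed transactivation-domain oligos fused to yeast HSF1 (amino acids 1–493) in an hsf1-deleted strain, replica-plated on –trp 5-FOA plates and incubated at 30°C or 37°C for 0, 2, 4, 6 and 8 days.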

VADDIWEERLSEDL was tested, and the growth estimate was less than -0.25.

QQNGEIAQLWDFN gave a growth estimate of -0.146.

In the case of QQNGEIARLWDFN, the growth estimate is reported as -0.234.

Work on DLDESWDYIFETRE yielded a growth estimate of 0.311.

With PEFPGIELQRLQELQALLQQ the growth estimate was -0.107.

Sequence DFDLDALGDFDLDMLG has a growth estimate of 5.01.

In the case of MLSSHGFSVDTSPLLDLFSP, the growth estimate is reported as -0.191.

For EFNDLLDLRFILSN, the growth estimate was less than -0.25.

With EDDDEFSLWDSMG the growth estimate was -0.226.

VADDIWEELASEDL showed a growth estimate of less than -0.25.

With LFDYDFLFGGDFA the growth estimate was 5.98.

EFNDLLDLDFIGSN was tested, and the growth estimate was 2.81.

With LFDYPFLFGNDFA the growth estimate was 1.53.

In the case of DFDLDMLGDFDLDMPG, the growth estimate is reported as 17.2.

In the case of TMDDVYKYLFDD, the growth estimate is reported as 0.872.

VADKIWEELLSEDL gave a growth estimate of -0.0109.

In the case of PEFPGIELQELQGLQALLQQ, the growth estimate is reported as less than -0.25.

With GFPDTQDDFLKWWRSEEAQ the growth estimate was -0.128.

Work on MLSSHGFPVDTSALLDLFSP yielded a growth estimate of -0.119.

For EFNDLLALDFILSN, the growth estimate was -0.112.

In the case of PEFPGIELQELQELQALKQQ, the growth estimate is reported as -0.232.

Sequence LFDYDFLFGNDFP has a growth estimate of 15.5.

DLDESWAYIFETTE gave a growth estimate of 0.283.

Sequence EFNDLLDLDKILSN has a growth estimate of -0.21.

Sequence EDLYSIPWSDVY has a growth estimate of -0.196.

Work on PFPDTQDDFLKWWRSEEAQ yielded a growth estimate of -0.149.

Work on VADDIWEELLSADL yielded a growth estimate of 3.11.

Work on DFDLDMLGDFDLPMLG yielded a growth estimate of 1.24.

LFDYDFLFGNKFA showed a growth estimate of -0.246.

Sequence PFPATQDDFLKWWRSEEAQ has a growth estimate of less than -0.25.

Sequence DFDLDMLGDFDLAMLG has a growth estimate of -0.0527.

In the case of MLSSHRFSVDTSALLDLFSP, the growth estimate is reported as -0.227.

TMDDVYNYLFRD showed a growth estimate of -0.0803.

DLDESWDYIFKTTE showed a growth estimate of 0.154.

MLSSHGFSVDTKALLDLFSP was tested, and the growth estimate was -0.145.

In the case of EDDDEFSLRDSML, the growth estimate is reported as -0.248.

Sequence QQNPEIAQLWDFN has a growth estimate of -0.234.

Sequence EDLYSILWSDRY has a growth estimate of -0.0848.

Sequence DELSWIIELPEKDG has a growth estimate of -0.237.

PFPDTQDDFLKWARSEEAQ gave a growth estimate of 0.0578.

In the case of VADDIWEELLSEDL, the growth estimate is reported as 0.661.

EFNDLLDLDFILPN gave a growth estimate of 10.7.

Sequence DLDESWDAIFETTE has a growth estimate of less than -0.25.

Sequence PFPDTQDDFLKWWKSEEAQ has a growth estimate of -0.186.

Sequence AMDDVYNYLFDD has a growth estimate of 2.28.

For DFDLDMPGDFDLDMLG, the growth estimate was 6.81.

Sequence EFNDLLDLDFGLSN has a growth estimate of 4.29.

For VRDDIWEELLSEDL, the growth estimate was 0.609.

For DLDESWDYIFEPTE, the growth estimate was 1.97.

With ADLYSILWSDVY the growth estimate was -0.203.

LFAYDFLFGNDFA gave a growth estimate of 0.948.

In the case of PFPDTQDDKLKWWRSEEAQ, the growth estimate is reported as -0.245.

For EDLYSILWSGVY, the growth estimate was -0.0514.

Work on LFDYDFLAGNDFA yielded a growth estimate of 0.0054.

DGDLDMLGDFDLDMLG was tested, and the growth estimate was 0.418.

MLPSHGFSVDTSALLDLFSP gave a growth estimate of -0.0639.

With LFDYDFLFGNDGA the growth estimate was 0.693.

In the case of QQNGEIAQKWDFN, the growth estimate is reported as 0.0645.

PFPDTQDDFLKWWRSEEKQ showed a growth estimate of less than -0.25.

Sequence EFADLLDLDFILSN has a growth estimate of 0.75.

For QQNGEIAQLGDFN, the growth estimate was -0.218.

With VADDIWEELLSERL the growth estimate was 5.09.

In the case of EDLYSPLWSDVY, the growth estimate is reported as less than -0.25.

Work on EFNDLADLDFILSN yielded a growth estimate of 0.121.

MLSSHGFSVDTSALLDPFSP was tested, and the growth estimate was less than -0.25.

Sequence DELSWIIELLEPDG has a growth estimate of 7.58.

Sequence LFDYDFGFGNDFA has a growth estimate of 1.76.

For DFDLDMLGDFDLDPLG, the growth estimate was 9.65.

EANDLLDLDFILSN gave a growth estimate of 0.0838.

Sequence DFDLDMLGDFDLDMLK has a growth estimate of 1.65.

EDPYSILWSDVY was tested, and the growth estimate was 0.731.

For MLSSHGFSVDTSALRDLFSP, the growth estimate was -0.196.

DFDLKMLGDFDLDMLG showed a growth estimate of 3.04.

Work on EDLYSIGWSDVY yielded a growth estimate of -0.212.

TMDDAYNYLFDD gave a growth estimate of -0.228.

Work on DFDLDGLGDFDLDMLG yielded a growth estimate of 2.75.

Sequence VADDIWEELLSGDL has a growth estimate of 3.96.

EFNPLLDLDFILSN was tested, and the growth estimate was less than -0.25.

For DLDRSWDYIFETTE, the growth estimate was -0.214.

PFPRTQDDFLKWWRSEEAQ gave a growth estimate of -0.248.

PFPDTKDDFLKWWRSEEAQ gave a growth estimate of less than -0.25.

EDDDEFSLWRSML was tested, and the growth estimate was -0.116.

In the case of DLDKSWDYIFETTE, the growth estimate is reported as -0.196.

With TMDDVYNYLADD the growth estimate was 0.274.

EFNDKLDLDFILSN gave a growth estimate of less than -0.25.

MLSSHGFSVDTSALLDLFRP gave a growth estimate of -0.22.

Work on LFDYDFLFPNDFA yielded a growth estimate of 4.58.

EDLYSILWRDVY was tested, and the growth estimate was -0.193.

Work on DFDADMLGDFDLDMLG yielded a growth estimate of 6.93.

Work on PEFPGIELQELQELKALLQQ yielded a growth estimate of -0.22.

DELSWIIERLEKDG showed a growth estimate of less than -0.25.

In the case of QQNGEIAQLWDFA, the growth estimate is reported as less than -0.25.

Work on MLSSHGFSVDTSAKLDLFSP yielded a growth estimate of -0.237.

With EFPDLLDLDFILSN the growth estimate was 0.17.

For VADDIWEELLSEKL, the growth estimate was 3.04.

With DLDEGWDYIFETTE the growth estimate was 0.787.

In the case of TMKDVYNYLFDD, the growth estimate is reported as less than -0.25.

In the case of QQNGKIAQLWDFN, the growth estimate is reported as -0.237.

KFDLDMLGDFDLDMLG showed a growth estimate of 0.164.

DFDLAMLGDFDLDMLG showed a growth estimate of 9.96.

LFDYDFLFGNDPA gave a growth estimate of 0.915.

With MLSSHGFSKDTSALLDLFSP the growth estimate was -0.239.

Work on LFDYDFLFGADFA yielded a growth estimate of 1.91.

PFPDTQDDFLRWWRSEEAQ was tested, and the growth estimate was -0.0276.

Work on DLDEAWDYIFETTE yielded a growth estimate of 1.45.

In the case of DLDESWDYRFETTE, the growth estimate is reported as -0.247.

QGNGEIAQLWDFN gave a growth estimate of less than -0.25.

In the case of EFNDLLDLKFILSN, the growth estimate is reported as -0.169.

For LADYDFLFGNDFA, the growth estimate was 2.67.

With VADDIWEELLKEDL the growth estimate was 7.64.

Work on PELSWIIELLEKDG yielded a growth estimate of -0.201.

LKDYDFLFGNDFA was tested, and the growth estimate was -0.0701.

For ERNDLLDLDFILSN, the growth estimate was -0.237.

PEFPGIELQELQELQAALQQ showed a growth estimate of -0.23.

With DELSWIIKLLEKDG the growth estimate was -0.233.

With MLSSHGFGVDTSALLDLFSP the growth estimate was -0.0322.

For TMDDVYNYLFKD, the growth estimate was less than -0.25.

PEFPGIELQELQELQALPQQ showed a growth estimate of less than -0.25.

For LFDYDFLFGNDFK, the growth estimate was 2.23.

QQPGEIAQLWDFN showed a growth estimate of -0.242.

Sequence DFDLDMLKDFDLDMLG has a growth estimate of 2.58.

With QQNGAIAQLWDFN the growth estimate was -0.114.

EGDDEFSLWDSML was tested, and the growth estimate was 0.054.

PEFRGIELQELQELQALLQQ gave a growth estimate of -0.124.

TMDDVYNYLFPD was tested, and the growth estimate was 1.69.

For KFDYDFLFGNDFA, the growth estimate was 1.06.

KLDESWDYIFETTE gave a growth estimate of -0.0907.

DKDESWDYIFETTE showed a growth estimate of -0.235.

Work on QQNGEIAQLWDFP yielded a growth estimate of -0.243.

Work on TMDDVYAYLFDD yielded a growth estimate of 4.4.

Sequence DLDESWDYIFETGE has a growth estimate of 1.44.

DFDLDMLGAFDLDMLG showed a growth estimate of 5.97.

Sequence EDDDEFSLWKSML has a growth estimate of less than -0.25.

PFPDTQDDFLKWWRSERAQ was tested, and the growth estimate was less than -0.25.

For EFNDLLDPDFILSN, the growth estimate was -0.0736.

For EFNDLLDRDFILSN, the growth estimate was -0.0427.

In the case of MLSSHGFSVDTSALLALFSP, the growth estimate is reported as -0.21.

Sequence TMDDVYNYLFGD has a growth estimate of 1.05.

PFPDTQDDFLKWWRSEEGQ gave a growth estimate of 0.109.

EGNDLLDLDFILSN was tested, and the growth estimate was 0.62.

Sequence MLSSHGFSVDTSALLPLFSP has a growth estimate of -0.158.

In the case of EDDAEFSLWDSML, the growth estimate is reported as 0.0227.

In the case of VADDIWPELLSEDL, the growth estimate is reported as 0.612.

In the case of EDDDEPSLWDSML, the growth estimate is reported as 0.0815.

For EDDDEFSAWDSML, the growth estimate was -0.0271.

Sequence DLDESWDYIFATTE has a growth estimate of 1.5.

Work on QQNGEIAPLWDFN yielded a growth estimate of less than -0.25.

Sequence VADDIWAELLSEDL has a growth estimate of 8.23.

In the case of MLSPHGFSVDTSALLDLFSP, the growth estimate is reported as 0.158.

DLDESWDYIFEATE was tested, and the growth estimate was 2.47.

DFDLDMLGDGDLDMLG gave a growth estimate of -0.147.

For MLSSHGFSVPTSALLDLFSP, the growth estimate was -0.204.

MLSSHGFSVDTSALLRLFSP was tested, and the growth estimate was -0.193.

For QQNGEIRQLWDFN, the growth estimate was -0.0449.

Sequence VAADIWEELLSEDL has a growth estimate of 1.83.

Work on QQNGERAQLWDFN yielded a growth estimate of -0.0438.

Sequence DELSWIIELLEKKG has a growth estimate of less than -0.25.

PFPDTQDPFLKWWRSEEAQ was tested, and the growth estimate was less than -0.25.

Sequence DFDLDMLGDFRLDMLG has a growth estimate of 0.535.

Sequence EDGDEFSLWDSML has a growth estimate of 0.533.

PEAPGIELQELQELQALLQQ showed a growth estimate of less than -0.25.
